# Reference: paper PMC5772342, “Metal-dependent allosteric activation and inhibition on the same molecular scaffold: the copper sensor CopY from Streptococcus pneumoniae† †Electronic supplementary information (ESI) available. See DO”
# Legend:
# [1] = biological target: T1, CopY C101A (Streptococcus pneumoniae D39, UniProt A0A0H2ZLC1 1-131, C101A); assay: fluorescence anisotropy; Zn1 CopY dimer; 40 uM ZnSO4; 0.23 M NaCl; FA: 10 mM HEPES pH 7.0, 0.23 M NaCl, 2 mM TCEP, 40 uM ZnSO4 or 2 mM EDTA, 25 C; EMSA: 10 nM DNA, 25 mM HEPES pH 7.0, 200 mM NaCl, 5 mM MgCl2, 50 ug/mL BSA (apo: 5 mM EDTA), 25 C; conditions: protein: recombinant; tags: N-terminal His6-TEV, cleaved; three non-native N-terminal residues remain (printed GAM); chain copies: 2; label: 5' fluorescein on strand 1; blunt
# [2] = biological target: T1, CopY C101A; assay: EMSA; Zn1 CopY dimer; 5 mM MgCl2; 200 mM NaCl; FA: 10 mM HEPES pH 7.0, 0.23 M NaCl, 2 mM TCEP, 40 uM ZnSO4 or 2 mM EDTA, 25 C; EMSA: 10 nM DNA, 25 mM HEPES pH 7.0, 200 mM NaCl, 5 mM MgCl2, 50 ug/mL BSA (apo: 5 mM EDTA), 25 C; conditions: protein: recombinant; tags: N-terminal His6-TEV, cleaved; three non-native N-terminal residues remain (printed GAM); chain copies: 2; label: 5' fluorescein on strand 1; blunt
binder,measurement,setting,value
32-bp cop operator (single cop box) (dsDNA) DNA 1: GTCTATAATTGACAAATGTAGATTTTAAGAGC DNA 2: GCTCTTAAAATCTACATTTGTCAATTATAGAC,Ka,[1],1e+07 M⁻¹
same,Ka,[2],2e+07 M⁻¹
